# Test system: IRF
# Test: IRF reporter assay in isogenic cGAS-, STING- and IRF-deficient macrophages
# Assay type: cell-based
# Settings: IRF-deficient macrophages, FIG. 2D
# Excerpt: (A) ICP-MS to quantify cellular level of gold in cells treated with ISD45-SNAs. (B-D) Luciferase reporter assay to quantify IRF induction in RAW-Lucia™ macrophages (B), THP cells (C), and in WT, cGAS-, STING- and IRF-deficient RAW-Lucia™ macrophages. TFX, transfection agent. Median+/−standard deviation is shown. *p<0.05. (E) Multiplex ELISA-based and (F) antibody array-based cytokine profiling in RAW-Lucia™ macrophages.
# To exploit the SNA architecture for cGAS activation, we synthesized ISD45-SNAs by conjugating 13 nm gold nanoparticles with 45 base pair (bp) dsISD oligonucleotides (ISD^45-SNAs; FIG. 1A), as 45 bp ISD oligonucleotides represent the most used and widely characterized cGAS activator^7. The terms “dsISD^45” and “ISD^45” are interchangeable as used herein. Citrate-stabilized gold nanoparticles were prepared using the Frens method^4,8,9. […] In addition, by generating melting curves, using an OliGreen fluorescence assay, and determining the zeta potential, oligonucleotide incorporation was quantified^4,8,9. […] Upon cGAS enzyme deactivation, the mixture was added to cGAS-deficient RAW-Lucia™ macrophages, carrying stable integration of an IRF-inducible Lucia luciferase reporter to quantify IRF induction luminometrically. […]
molecule,measurement,value
"ISD-45: free 45 bp interferon-stimulatory dsDNA oligonucleotide, the most used and widely characterized cGAS activator (nucleic acid, DNA, backbone and methylation of C not given here) sense: TACAGATCTACTAGTGATCTATGACTGATCTGTACATGATCTACA antisense: ACATCTAGTACATGTCTAGTCAGTATCTAGTGATCATCAGACA","IRF induction in the absence of STING, cGAS or IRF",blunted

# — patent US20250002921A1, “SPHERICAL NUCLEIC ACIDS FOR cGAS-STING AND STAT3 PATHWAY MODULATION FOR THE IMMUNOTHERAPEUTIC TREATMENT OF CANCER” (NORTHWESTER UNIVERSITY, priority 2021, published 2025)
